What all share (assay): native MS
The target in test [1] is FapF.
Test [2] concerns the target FapF. The source holds these as a separate data set.
Test [3] has as its target FapF. This is another data set of the same source.

Read-outs that look alike come from different tables or passages of the source.

As for FapC (natural protein), the stoichiometry N (per FapF trimer) in the test with FapF [1] was 1. In the case of FapD (natural protein), the stoichiometry N (per FapF trimer) in the test with FapF [1] is 1. On the same count and under the same terms, then FapE (natural protein), with 1. Turning to FapF (natural protein), the stoichiometry N in the test with FapF [2], with FapF [3] and with FapF [1] was 3 each time.

Values taken from paper PMC7305028.
